We go through 1 substance from paper PMC3828182.

The target in test [1] is FLAG-tagged HPV51 chimera 5 L2 (Ch5L2-FLAG) (human papillomavirus type 51, Ma strain | human papillomavirus type 51, Nu strain) (UniProt P26539).
Test [2] deals with FLAG-tagged HPV51 chimera 4 L2 (Ch4L2-FLAG) (human papillomavirus type 51, Ma strain | human papillomavirus type 51, Nu strain) (UniProt P26539).

“transport protein particle complex subunit 8 (TRAPPC8) (from UniProt Q9Y2L5 1-1435) (natural protein)”: the percent of HeLa cells GFP-positive by flow cytometry after inoculation with HPV51 PsV containing the (untagged) Ch5L2 and a GFP-expression plasmid in test [1] worked out at 80%. Besides, the percent of HeLa cells GFP-positive by flow cytometry after inoculation with HPV51 PsV containing the (untagged) Ch4L2 and a GFP-expression plasmid in test [2] stood at 4%.
